Data reported in publication PMC11214836, “ILF3 safeguards telomeres from aberrant homologous recombination as a telomeric R-loop reader”.

Target: T1, ILF3-GFP full-length (UniProt Q12906 1-894)
T1 sequence: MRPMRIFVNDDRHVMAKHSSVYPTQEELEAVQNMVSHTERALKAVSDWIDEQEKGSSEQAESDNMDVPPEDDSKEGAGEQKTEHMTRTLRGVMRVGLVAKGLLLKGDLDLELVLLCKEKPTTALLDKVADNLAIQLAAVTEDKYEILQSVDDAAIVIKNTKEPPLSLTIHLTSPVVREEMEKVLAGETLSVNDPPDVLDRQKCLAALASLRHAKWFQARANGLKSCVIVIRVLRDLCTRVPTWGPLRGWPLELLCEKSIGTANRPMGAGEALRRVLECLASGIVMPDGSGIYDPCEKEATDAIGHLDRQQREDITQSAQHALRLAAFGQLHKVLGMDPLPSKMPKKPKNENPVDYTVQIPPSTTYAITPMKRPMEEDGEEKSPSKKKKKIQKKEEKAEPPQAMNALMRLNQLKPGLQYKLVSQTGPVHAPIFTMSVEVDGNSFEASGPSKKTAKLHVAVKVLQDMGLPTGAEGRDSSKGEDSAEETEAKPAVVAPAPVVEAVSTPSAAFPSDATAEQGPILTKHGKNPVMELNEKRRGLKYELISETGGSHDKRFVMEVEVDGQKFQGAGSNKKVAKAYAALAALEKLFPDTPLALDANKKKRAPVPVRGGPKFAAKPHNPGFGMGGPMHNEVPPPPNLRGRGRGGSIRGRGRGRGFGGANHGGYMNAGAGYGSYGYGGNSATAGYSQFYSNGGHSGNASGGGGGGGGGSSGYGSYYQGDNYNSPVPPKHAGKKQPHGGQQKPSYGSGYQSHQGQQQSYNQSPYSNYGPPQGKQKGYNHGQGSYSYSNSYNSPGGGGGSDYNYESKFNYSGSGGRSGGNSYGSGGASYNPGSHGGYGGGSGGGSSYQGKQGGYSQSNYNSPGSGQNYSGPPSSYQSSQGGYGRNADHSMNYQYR
Assay: MST; MST: 50 nM His-ILF3-GFP, oligo 0.4 nM-5 uM, 25 mM Tris-HCl pH 7.5, 100 mM NaCl, room temperature
Conditions: protein: recombinant, tags: His, blunt

B1: mutTERRA RNA:DNA hybrid (UUAGCC) (DNA:RNA)
RNA: AGGGUUAGCCUUAGCCUUAGCC
DNA: GGCTAAGGCTAAGGCTAACCCT
- binding result: no binding
